Measured values as given in PMC6318265, “Structure of BAI1/ELMO2 complex reveals an action mechanism of adhesion GPCRs via ELMO family scaffolds” (Nature Communications, 2019).

T1: ELMO2-RAE (sample of the ITC titration) (human, UniProt Q96JJ3 1-520)
T1 construct: ELMO2, GenBank AF398886.1, aa 1-520 (RBD-ARR-ELMO tandem); Tag removal is described only for crystallography; also called Trx-His6-ELMO2-RAE; source: E. coli BL21 (DE3), purified (Ni-NTA, SEC)
T1 sequence (looked up): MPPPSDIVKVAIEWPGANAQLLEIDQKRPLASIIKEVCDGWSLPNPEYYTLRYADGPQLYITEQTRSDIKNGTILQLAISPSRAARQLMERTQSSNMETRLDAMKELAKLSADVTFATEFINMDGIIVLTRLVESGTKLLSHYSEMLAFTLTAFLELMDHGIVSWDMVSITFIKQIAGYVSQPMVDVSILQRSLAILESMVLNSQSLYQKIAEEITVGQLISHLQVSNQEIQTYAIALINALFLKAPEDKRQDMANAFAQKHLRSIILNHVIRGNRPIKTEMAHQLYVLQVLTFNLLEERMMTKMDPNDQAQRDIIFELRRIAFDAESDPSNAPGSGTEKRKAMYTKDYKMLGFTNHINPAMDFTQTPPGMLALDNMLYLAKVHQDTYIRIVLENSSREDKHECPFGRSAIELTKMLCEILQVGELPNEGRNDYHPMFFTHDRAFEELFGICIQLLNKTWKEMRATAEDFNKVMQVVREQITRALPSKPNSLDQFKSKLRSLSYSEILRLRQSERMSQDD

T2: ELMO2-RAE (tag removed, for crystallography) (human, UniProt Q96JJ3 1-520)
T2 construct: ELMO2, GenBank AF398886.1, aa 1-520 (RBD aa 1-80, ARR aa 81-301, ELMO domain aa 306-513); also called RAE tandem of ELMO2; source: E. coli BL21 (DE3), purified (Ni-NTA, SEC, 3C protease cleavage, SEC)
T2 sequence (looked up): T1 sequence (looked up)

B1: BAI1-EBD (sample of the ITC titration) (domain or fragment, mouse, UniProt Q3UHD1-1 1467-1502, looked up)
chain: SLERRKSRYAELDFEKIMHTRKRHQDMFQDLNRKLQ
notes: the methods speak of 'BAI1 proteins'
B2: synthetic BAI1-EBD peptide (peptide, UniProt Q3UHD1-1 1467-1502, looked up)
peptide: B1 chain
notes: aa 1471-1495 are defined in the electron density; source: synthetic peptide (ChinaPeptide Co.,Ltd.)

Legend:
[1] = biological target: T1, ELMO2-RAE (sample of the ITC titration); experiment: ITC; MicroCal iTC200, 25 °C; 50 mM Tris pH 8.0, 100 mM NaCl, 1 mM EDTA, 1 mM DTT; BAI1-EBD (~500 µM) in the syringe, ELMO2-RAE (~40 µM) in the cell; conditions: both partners purified
[2] = biological target: T2, ELMO2-RAE (tag removed, for …); experiment: crystal structure; ELMO2-RAE mixed with synthetic BAI1-EBD peptide at 1:2; 0.3 M ammonium fluoride, 18% PEG3,350, 16 °C; 1.7 Å, molecular replacement; conditions: both partners purified

Row | Binder | Kd [1] | stoichiometry N [1] | stoichiometry N [2]
1 | B1 | ~3.36 µM | 1 | –
2 | B2 | – | – | 1
